This is an account of results in article PMC13185157.

In the experiment the target is GFP-LNX1. Kind of experiment: flow cytometry on cells; α-GFP-Nb yeast incubated with lysates of HEK293 cells expressing FLAG-tagged partner plus GFP-LNX1 or GFP; washed once; anti-FLAG antibody; percent of positive cells.

FLAG-NUMB, sequence (Q9QZS3 whole entry): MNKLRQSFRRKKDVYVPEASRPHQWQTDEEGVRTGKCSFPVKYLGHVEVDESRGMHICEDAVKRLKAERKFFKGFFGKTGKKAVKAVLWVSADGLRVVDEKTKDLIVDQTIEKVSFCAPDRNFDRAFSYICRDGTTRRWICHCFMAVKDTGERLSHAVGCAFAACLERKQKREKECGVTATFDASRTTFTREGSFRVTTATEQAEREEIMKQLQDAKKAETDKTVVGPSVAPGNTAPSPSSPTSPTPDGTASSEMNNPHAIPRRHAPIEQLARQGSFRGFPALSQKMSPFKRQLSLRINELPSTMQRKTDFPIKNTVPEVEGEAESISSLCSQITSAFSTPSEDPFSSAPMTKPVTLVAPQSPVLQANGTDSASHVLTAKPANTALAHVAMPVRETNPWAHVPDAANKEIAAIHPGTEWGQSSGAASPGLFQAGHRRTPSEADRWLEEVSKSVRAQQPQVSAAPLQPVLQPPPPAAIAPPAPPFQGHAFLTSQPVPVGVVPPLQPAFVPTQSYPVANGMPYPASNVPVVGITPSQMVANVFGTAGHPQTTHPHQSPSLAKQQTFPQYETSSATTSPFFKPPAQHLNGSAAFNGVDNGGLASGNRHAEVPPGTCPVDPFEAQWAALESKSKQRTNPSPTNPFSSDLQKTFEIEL
FLAG-Liprin-α1, sequence (Q13136 whole entry): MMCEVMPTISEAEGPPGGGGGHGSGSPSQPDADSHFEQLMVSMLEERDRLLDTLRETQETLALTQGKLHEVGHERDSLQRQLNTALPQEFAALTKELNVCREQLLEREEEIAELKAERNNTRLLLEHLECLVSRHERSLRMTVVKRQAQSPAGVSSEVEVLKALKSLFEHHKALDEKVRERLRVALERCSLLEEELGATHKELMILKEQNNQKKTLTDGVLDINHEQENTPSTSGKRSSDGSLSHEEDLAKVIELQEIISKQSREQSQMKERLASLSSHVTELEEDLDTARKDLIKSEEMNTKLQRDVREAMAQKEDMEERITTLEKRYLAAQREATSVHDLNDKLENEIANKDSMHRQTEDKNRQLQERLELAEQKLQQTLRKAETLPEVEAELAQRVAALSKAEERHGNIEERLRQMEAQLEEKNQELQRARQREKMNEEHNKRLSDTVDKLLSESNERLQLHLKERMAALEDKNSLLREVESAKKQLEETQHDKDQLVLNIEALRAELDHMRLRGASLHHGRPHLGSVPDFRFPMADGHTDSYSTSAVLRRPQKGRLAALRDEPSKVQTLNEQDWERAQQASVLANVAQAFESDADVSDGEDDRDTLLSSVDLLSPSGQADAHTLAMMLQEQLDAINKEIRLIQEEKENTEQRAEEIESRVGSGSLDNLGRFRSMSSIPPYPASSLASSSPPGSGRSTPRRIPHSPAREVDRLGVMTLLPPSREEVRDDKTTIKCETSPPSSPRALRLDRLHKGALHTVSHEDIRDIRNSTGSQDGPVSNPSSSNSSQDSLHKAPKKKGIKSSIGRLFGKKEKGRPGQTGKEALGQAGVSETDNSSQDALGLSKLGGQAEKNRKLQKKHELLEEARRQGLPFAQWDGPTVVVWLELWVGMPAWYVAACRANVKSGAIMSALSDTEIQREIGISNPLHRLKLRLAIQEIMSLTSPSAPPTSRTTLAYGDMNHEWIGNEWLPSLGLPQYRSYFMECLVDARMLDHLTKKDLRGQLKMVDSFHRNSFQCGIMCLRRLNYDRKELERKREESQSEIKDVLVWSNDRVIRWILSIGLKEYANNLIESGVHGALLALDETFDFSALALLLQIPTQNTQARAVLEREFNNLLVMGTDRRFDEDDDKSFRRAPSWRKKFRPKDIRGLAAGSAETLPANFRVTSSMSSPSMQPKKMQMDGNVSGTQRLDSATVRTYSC
FLAG-ZNF24, sequence (P17028 whole entry): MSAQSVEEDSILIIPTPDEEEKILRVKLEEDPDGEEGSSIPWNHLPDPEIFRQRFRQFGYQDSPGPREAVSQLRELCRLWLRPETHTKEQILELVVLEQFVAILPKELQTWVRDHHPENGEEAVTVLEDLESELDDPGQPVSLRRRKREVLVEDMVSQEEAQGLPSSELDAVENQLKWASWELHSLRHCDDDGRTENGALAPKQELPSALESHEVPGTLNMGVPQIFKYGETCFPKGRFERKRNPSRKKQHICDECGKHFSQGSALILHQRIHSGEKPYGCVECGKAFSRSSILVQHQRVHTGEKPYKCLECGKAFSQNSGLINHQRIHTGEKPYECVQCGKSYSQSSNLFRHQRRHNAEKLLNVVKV

As for “FLAG-Liprin-α1 (from UniProt Q13136 1-1202) (natural protein)”, the percent of cells positively labelled with anti-FLAG antibody came to 30%. As for “FLAG-NUMB (from UniProt Q9QZS3 1-653) (natural protein)”, the percent of cells positively labelled with anti-FLAG antibody amounted to 10%. For the substance “FLAG-ZNF24 (from UniProt P17028 1-368) (natural protein)”, the percent of FLAG positive cells amounted to 77%.
